Biological target: the molecule itself
Assay: SEC; analytical size exclusion on a calibrated Superdex 200 column, buffer B, size standards 43-440 kDa; oligomeric state of the purified complex

B1: His-CooSF1 complex of Thermoanaerobacter kivui (complex)
chain 1: MSDNYIYSAEKVIDELSRKPGFVDTAIKRWEKRDPKCGFGYKGICCRLCSNGPCRITPTQPVGICGATADTIVARNLLRAIAAGTSCYVHHCRNAANTLLSVAEGKSSYTIKDEEKLKKYAKKMGINTNKDIKRIAYEFATRVLNDLSKPYTEKAELVEKLSLPARVSTWKSLNIMPGGVNEEIIAALTKTSTNLNSDPVDMAVHCLRLGIITGIYGLELTCIMQDILLGSPKIASTYSNFGVIDQGYINLATIGGHQQVVSNRILEMASSKEWVKKAQEAGAKGFKIYGVTCVGQDYELRCASDKNSAFGGYVGNNFTQEYILGTGAIDLVFSEFNCTLPGIEPICKEYLVKQICLDDVAKKVGADLYQFQPEKADEYAAITLDEAIKAYKNRRGKVKIDVPTEKTPAMTGFTEDSIKGALGGSWKLLIDLIVKGDIKGVAGVVGCSNMAAKGHGIYGVELTKELIKRDILVLGNGCVGGNLENAGLYGLESIELAGPKLKEVCRKLNIPPVLNIGPCLSIGRIHIIAEEIAEELKVDVPQIPVVASAPQWLEEQALADGTFGVVLGLDLLLGTPPAVTGSNLITELLTSKLKDMVGARFIIEADPILGADAMESSIMERRKLLNI
chain 2: MDVKSGTKYIFADIKKCLGCRCCEQACADANGNRPYWELLGSGIPLSPNINILYIFLQDKNYPVMAQAVCRQCEDAPCVKICPVKAISVNPDGIKVIDKQRCIGCHSCSIVCPFGAVYIPDKHAVATKCTLCIERKGAEGQPACVEACPNGALQLVDTKEIGREKVKKIVSDTFSNK
notes: as the chain of m1; as the chain of m2; Written as the CooS-CooF1 unit; also called His-CooFS1; source: T. kivui pMU131_His-cooS, purified (Ni2+-NTA, Superdex 200); not shown: 10 x His, N-terminal, kept
- stoichiometry N: 6

Reference: PMC8683389, “The monofunctional CO dehydrogenase CooS is essential for growth of Thermoanaerobacter kivui on carbon monoxide” (Extremophiles, 2021)
